We go through one substance from article PMC4653696.

Test in all cases: FRET or BRET; 25 nM donor (AF555)-labelled octamers titrated with acceptor (AF647)-labelled octamers, serial dilutions from 100 nM; 45 mM KCl, 50 mM Tris-HCl pH 8.0; room temperature, 1 h equilibration; triplicate; PCA and curve fit; apparent Kd of end-to-end association of rods
Background: BRET reads energy transfer from a luciferase to a nearby fluorophore.

Experiment [1] deals with Cdc11(E294C ΔCTE)-capped, otherwise Cys-less septin hetero-octamer (S. cerevisiae) (UniProt P32458).
Experiment [2] addresses Cdc11(E294C)-capped, otherwise Cys-less septin hetero-octamer (Cdc11-Cdc12-Cdc3-Cdc10-Cdc10-Cdc3-Cdc12-Cdc11) (S. cerevisiae) (UniProt P32458).
In experiment [3] the target is Shs1(E344C ΔCTE)-capped, otherwise Cys-less septin hetero-octamer (S. cerevisiae) (UniProt Q07657).
Chain of Shs1(E344C ΔCTE)-capped, otherwise Cys-less septin hetero-octamer (S. cerevisiae) (Q07657 1-348 C29V/C148S/E344C, chain 1 of 4): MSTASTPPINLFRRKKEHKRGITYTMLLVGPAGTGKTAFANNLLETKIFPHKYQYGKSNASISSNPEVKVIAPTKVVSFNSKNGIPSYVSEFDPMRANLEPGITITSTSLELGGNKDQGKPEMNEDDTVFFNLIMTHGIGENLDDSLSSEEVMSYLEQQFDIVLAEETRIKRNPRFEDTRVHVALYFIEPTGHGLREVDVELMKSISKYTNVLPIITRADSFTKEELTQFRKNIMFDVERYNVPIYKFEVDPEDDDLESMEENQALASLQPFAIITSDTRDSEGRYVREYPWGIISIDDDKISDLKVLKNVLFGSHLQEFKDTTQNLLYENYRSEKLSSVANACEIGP
Chain of Shs1(E344C ΔCTE)-capped, otherwise Cys-less septin hetero-octamer (S. cerevisiae) (P32468 whole entry C40A/C278S, chain 2 of 4, further chain): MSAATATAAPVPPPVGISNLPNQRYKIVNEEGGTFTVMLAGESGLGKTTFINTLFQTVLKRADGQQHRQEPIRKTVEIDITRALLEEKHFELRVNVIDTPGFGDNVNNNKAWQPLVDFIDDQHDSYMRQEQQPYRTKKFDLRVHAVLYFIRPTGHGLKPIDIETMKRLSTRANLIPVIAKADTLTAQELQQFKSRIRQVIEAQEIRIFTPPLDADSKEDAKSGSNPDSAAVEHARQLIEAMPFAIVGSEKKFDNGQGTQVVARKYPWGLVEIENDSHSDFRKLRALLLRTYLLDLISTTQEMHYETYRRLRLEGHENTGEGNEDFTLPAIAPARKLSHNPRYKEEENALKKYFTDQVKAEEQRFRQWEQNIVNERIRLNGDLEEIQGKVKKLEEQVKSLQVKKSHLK
Chain of Shs1(E344C ΔCTE)-capped, otherwise Cys-less septin hetero-octamer (S. cerevisiae) (P32457 other isoform, or with tags, fused parts or gaps E344C, chain 3 of 4, further chain): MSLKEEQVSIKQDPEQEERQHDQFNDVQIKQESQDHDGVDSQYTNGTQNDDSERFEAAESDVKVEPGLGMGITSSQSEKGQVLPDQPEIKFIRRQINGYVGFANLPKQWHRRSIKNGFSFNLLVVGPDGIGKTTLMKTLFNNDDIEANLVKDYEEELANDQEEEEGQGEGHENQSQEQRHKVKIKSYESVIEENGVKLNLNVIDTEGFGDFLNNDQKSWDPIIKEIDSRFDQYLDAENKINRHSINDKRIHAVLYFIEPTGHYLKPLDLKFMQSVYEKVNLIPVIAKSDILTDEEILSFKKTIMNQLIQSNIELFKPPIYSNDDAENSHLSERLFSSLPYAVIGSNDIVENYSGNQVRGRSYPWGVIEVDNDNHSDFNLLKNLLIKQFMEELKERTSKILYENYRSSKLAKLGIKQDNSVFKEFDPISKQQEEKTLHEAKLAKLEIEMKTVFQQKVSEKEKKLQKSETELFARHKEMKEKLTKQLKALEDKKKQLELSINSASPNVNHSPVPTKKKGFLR
Chain of Shs1(E344C ΔCTE)-capped, otherwise Cys-less septin hetero-octamer (S. cerevisiae) (P25342 whole entry C266S, chain 4 of 4, further chain): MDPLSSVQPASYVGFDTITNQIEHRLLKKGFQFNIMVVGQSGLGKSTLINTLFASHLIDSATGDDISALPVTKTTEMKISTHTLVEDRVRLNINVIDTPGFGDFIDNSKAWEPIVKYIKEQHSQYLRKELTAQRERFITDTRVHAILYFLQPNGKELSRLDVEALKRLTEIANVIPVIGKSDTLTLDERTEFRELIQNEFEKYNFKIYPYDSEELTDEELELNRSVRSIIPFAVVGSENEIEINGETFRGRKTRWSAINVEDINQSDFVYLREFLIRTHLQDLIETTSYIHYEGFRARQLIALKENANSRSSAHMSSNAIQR
Experiment [4] deals with Shs1(E344C)-capped, otherwise Cys-less septin hetero-octamer (Shs1-Cdc12-Cdc3-Cdc10-Cdc10-Cdc3-Cdc12-Shs1) (S. cerevisiae) (UniProt Q07657).
Chain of Shs1(E344C)-capped, otherwise Cys-less septin hetero-octamer (Shs1-Cdc12-Cdc3-Cdc10-Cdc10-Cdc3-Cdc12-Shs1) (S. cerevisiae) (Q07657 whole entry C29V/C148S/E344C, chain 1 of 4): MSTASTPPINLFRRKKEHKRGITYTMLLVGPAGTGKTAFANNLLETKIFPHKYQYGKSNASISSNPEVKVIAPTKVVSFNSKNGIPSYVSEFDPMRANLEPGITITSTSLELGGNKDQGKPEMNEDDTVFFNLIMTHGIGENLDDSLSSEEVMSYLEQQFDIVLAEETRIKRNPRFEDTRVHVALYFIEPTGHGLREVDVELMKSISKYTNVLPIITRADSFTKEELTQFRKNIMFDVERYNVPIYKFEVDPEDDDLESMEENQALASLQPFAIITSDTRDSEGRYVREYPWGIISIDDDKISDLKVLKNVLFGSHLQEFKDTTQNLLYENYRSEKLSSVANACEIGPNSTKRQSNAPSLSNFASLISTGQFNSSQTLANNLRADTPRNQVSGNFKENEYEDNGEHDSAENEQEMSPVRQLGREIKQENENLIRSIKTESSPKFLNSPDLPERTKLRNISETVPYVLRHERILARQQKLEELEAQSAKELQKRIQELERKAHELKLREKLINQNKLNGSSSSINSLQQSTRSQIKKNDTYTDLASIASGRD
Chain of Shs1(E344C)-capped, otherwise Cys-less septin hetero-octamer (Shs1-Cdc12-Cdc3-Cdc10-Cdc10-Cdc3-Cdc12-Shs1) (S. cerevisiae) (P32468 whole entry C40A/C278S, chain 2 of 4, further chain): as the sequence (P32468 whole entry C40A/C278S, chain 2 of 4, further chain) above
Chain of Shs1(E344C)-capped, otherwise Cys-less septin hetero-octamer (Shs1-Cdc12-Cdc3-Cdc10-Cdc10-Cdc3-Cdc12-Shs1) (S. cerevisiae) (P32457 other isoform, or with tags, fused parts or gaps E344C, chain 3 of 4, further chain): as the sequence (P32457 other isoform, or with tags, fused parts or gaps E344C, chain 3 of 4, further chain) above
Chain of Shs1(E344C)-capped, otherwise Cys-less septin hetero-octamer (Shs1-Cdc12-Cdc3-Cdc10-Cdc10-Cdc3-Cdc12-Shs1) (S. cerevisiae) (P25342 whole entry C266S, chain 4 of 4, further chain): as the sequence (P25342 whole entry C266S, chain 4 of 4, further chain) above

Chain of Cdc11(E294C)-capped, otherwise Cys-less septin hetero-octamer (Cdc11-Cdc12-Cdc3-Cdc10-Cdc10-Cdc3-Cdc12-Cdc11) (S. cerevisiae) (P32458 whole entry C43F/C137A/C138A/E294C, chain 1 of 4): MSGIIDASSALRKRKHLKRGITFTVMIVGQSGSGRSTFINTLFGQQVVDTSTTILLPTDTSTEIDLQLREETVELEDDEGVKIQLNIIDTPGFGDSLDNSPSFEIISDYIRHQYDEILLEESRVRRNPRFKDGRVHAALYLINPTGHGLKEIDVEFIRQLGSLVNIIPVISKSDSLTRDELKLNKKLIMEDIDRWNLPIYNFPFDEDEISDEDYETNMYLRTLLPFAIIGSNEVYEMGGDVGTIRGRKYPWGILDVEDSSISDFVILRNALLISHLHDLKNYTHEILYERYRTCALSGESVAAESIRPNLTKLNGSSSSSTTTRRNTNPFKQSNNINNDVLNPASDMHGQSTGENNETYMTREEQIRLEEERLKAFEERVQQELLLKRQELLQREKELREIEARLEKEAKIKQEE
Chain of Cdc11(E294C)-capped, otherwise Cys-less septin hetero-octamer (Cdc11-Cdc12-Cdc3-Cdc10-Cdc10-Cdc3-Cdc12-Cdc11) (S. cerevisiae) (P32468 whole entry C40A/C278S, chain 2 of 4, further chain): as the sequence (P32468 whole entry C40A/C278S, chain 2 of 4, further chain) above
Chain of Cdc11(E294C)-capped, otherwise Cys-less septin hetero-octamer (Cdc11-Cdc12-Cdc3-Cdc10-Cdc10-Cdc3-Cdc12-Cdc11) (S. cerevisiae) (P32457 other isoform, or with tags, fused parts or gaps E294C, chain 3 of 4, further chain): as the sequence (P32457 other isoform, or with tags, fused parts or gaps E344C, chain 3 of 4, further chain) above
Chain of Cdc11(E294C)-capped, otherwise Cys-less septin hetero-octamer (Cdc11-Cdc12-Cdc3-Cdc10-Cdc10-Cdc3-Cdc12-Cdc11) (S. cerevisiae) (P25342 whole entry C266S, chain 4 of 4, further chain): as the sequence (P25342 whole entry C266S, chain 4 of 4, further chain) above

In the case of “Cdc11(E294C ΔCTE)-capped, otherwise Cys-less septin hetero-octamer (from UniProt P32458 1-305; P32468 1-407; P32457 1-520; P25342 1-322) (complex)”, the Kd came out at 17.7 nM in experiment [1], 24.1 nM in experiment [2], 22.8 nM in experiment [3] and 22.2 nM in experiment [4].
